Two molecules from paper PMC7362310 (Molecular cell, 2020) can be followed below.

The target of assay [1] is FLAG-tagged BRD4-L purified from insect Sf9 cells (human, UniProt O60885-1 1-1362). In words: pull-down.
In assay [2] the target is FLAG-tagged BRD4-S(a) purified from insect Sf9 cells (human, UniProt O60885-2 1-722). In words: pull-down.

B1: FLAG-tagged EN2 purified from bacteria (natural protein, UniProt P19622 1-333, looked up)
chain: MEENDPKPGEAAAAVEGQRQPESSPGGGSGGGGGSSPGEADTGRRRALMLPAVLQAPGNHQHPHRITNFFIDNILRPEFGRRKDAGTCCAGAGGGRGGGAGGEGGASGAEGGGGAGGSEQLLGSGSREPRQNPPCAPGAGGPLPAAGSDSPGDGEGGSKTLSLHGGAKKGGDPGGPLDGSLKARGLGGGDLSVSSDSDSSQAGANLGAQPMLWPAWVYCTRYSDRPSSGPRSRKPKKKNPNKEDKRPRTAFTAEQLQRLKAEFQTNRYLTEQRRQSLAQELSLNESQIKIWFQNKRAKIKKATGNKNTLAVHLMAQGLYNHSTTAKEGKSDSE
On to B1, for which the binding result in assay [1] and in assay [2] was “binds” in each case.

B2: FLAG-tagged EN1 purified from bacteria (natural protein, UniProt Q05925 1-392, looked up)
chain: MEEQQPEPKSQRDSALGAAAAATPGGLSLSLSPGASGSSGSGSDGDSVPVSPQPAPPSPPAAPCLPPLAHHPHLPPHPPPPPPQHLAAPAHQPQPAAQLHRTTNFFIDNILRPDFGCKKEQPPPQLLVAAAARGGAGGGGRVERDRGQTAAGRDPVHPLGTRAPGAASLLCAPDANCGPPDGSQPAAAGAGASKAGNPAAAAAAAAAAVAAAAAAAAAKPSDTGGGGSGGGAGSPGAQGTKYPEHGNPAILLMGSANGGPVVKTDSQQPLVWPAWVYCTRYSDRPSSGPRTRKLKKKKNEKEDKRPRTAFTAEQLQRLKAEFQANRYITEQRRQTLAQELSLNESQIKIWFQNKRAKIKKATGIKNGLALHLMAQGLYNHSTTTVQDKDESE
As to B2, the binding result in assay [1] and in assay [2] was “binds” each time.
